Substitutions are numbered along the chain they refer to.
B1: 847.16D10: anti-Gal3 antibody (antibody, V domains shown)
VH: QVQLQQSGAELVRPGASVKLSCKASGYTFTGYWLNWVKQRPGQGLEWIGMIDPSDSETHYNQVFKDKATMTVDRSSSTAYMQLSGLTSEDSAVYYCANSNYASGSWGQGTTLTVSS
VL: QAVVTQESALTTSPGETVTLTCRSSTGAVTTSNYANWDQEKPDHLFTGLIGGTNNRAPGVPARFSGSLIGDKAALTITGAQTEDEAIYFCALWYSNHLVFGGGTKVTVL
B2: 847.4D3: anti-Gal3 antibody (antibody, V domains shown)
VH: EVQLVESGGGLVKPGGSLKLSCAASGFTFSSYAMSWVRQTPEKRLEWVASISSGDSPYYPDSVKGRFTISRDNARNILYLQMSSLRSEDTAMYYCTRFTTVVEMDYWGQGTSVTVSS
VL: DVVMTQTPKFLPITAEDRVTITCKASQSVSNEVAWYQQKPGQSPKLLIYYASNRYTGVPDRFTGSGSGTDFTFTIRSVQLEDLAVYFCQQHYSSPWTFGGGTKLEIK
B3: 847.21B11: anti-Gal3 antibody (antibody, V domains shown)
VH: QVQLKQSGPGLVAPSQSLSITCTVSGFSLTSYGVHWVRQPPGKGLEWLGIIWAGGSTNYNPALMSRLSISKDKSKSQVFLKMNSLKTDDTAMYYCARDRASLLRPGAMDYWGQGTSVTVSS
VL: DIVMTQSQKFMSTSVGDRVSVTCKASQNVGINVAWYQQKPGQSPKALIYSASYRYSGVPDRFTGSGSGTDFTLTISNVQSEDLAEYFCQQYNSYPYTFGGGTKLEMK
B4: 847.15F9: anti-Gal3 antibody (antibody, V domains shown)
VH: QVQMKQSGPGLVQPSQSLSITCTVSGFSLINYGVHWVRQSPGKGLEWLGVIWSGGSTDYNAAFISRLSISKDNSKSQVFFKMNSLQADDTAIYYCARIYYYGRGYAMDYWGQGTSVTVSS
VL: QIVLSQSPAILSASPGEKVTMTCRASSSVTYMYWYQQKPGSSPQPWIYATSNLASGVPARFSGSGSGTSYSLTISRVEAEDAATYYCQQWSSNPLTFGAGTKLELK
B5: 847.2B8: anti-Gal3 antibody (antibody, V domains shown)
VH: B4 VH with M4L
VL: B4 VL with V3L
B6: 846T.4C9: anti-Gal3 antibody (antibody, V domains shown)
VH: EVQLQQSGPELVKPGASVKMSCKASGYSFTNYIMHWVKQKPGQGLEWIGYINPYNDGTKYNEKFKGKATLTSDKSSSTAYMELSSLTSEDSAVYYCARLLFYYAMDYWGQGTSVTVSS
VL: DILMTQTPSSMSVSLGDTVSITCHASQGISSNIGWLQQKPRKSFKGLIYYGTNLEDGVPSRFSGSGSGADYSLTISSLESEDFADYYCVQYDQFPWTFGGGTKLEIK
B7: 849.5H1: anti-Gal3 antibody (antibody, V domains shown)
VH: QVQLKESGPVLVAPSQSLSITCTVSGFSLTSYGIHWVRQPPGKGLEWLGVIWAGGSTNYNSALMSRLSISKDNSKSQVFLKMNSLQIDDTAMYYCAKPPHDYDQAWFAYWGQGTLITVSA
VL: DIQMNQSPSSLSASLGDTITITCHASQNINVWLSWYQQKPGNIPKLLIYQASNLHTGVPSRFSGRGSGTGFTLTISSLQPEDIATYYCQQGQSSPFTFGSGTKLEIK

target: T1, human Gal3 (Homo sapiens, UniProt P17931); assay: Epitope binning, sandwich format, SPR Carterra LSA (Example 8); assay type: binding; settings: not given
T1 construct: 6xHis (linker-spaced) (C); purchased AcroBio (Acro Biosystems) GA3-H5129
Description: The epitope binning assay was done in a sandwich format on the high-throughput SPR-based Carterra LSA unit (CarterraBio, Salt Lake City, Utah). First, the purified antibodies were diluted to 10 μg/ml concentration in 10 mM NaOAc (pH 5.0) and then were covalently coupled via amine group to HC200M chip activated by EDC and S-NHS to immobilize antibodies to different positions of a 384-spot array. One hundred thirty-eight binning cycles were run on the array of immobilized antibodies. In each cycle, first, human Gal3 (AcroBio GA3-H5129) was injected over the entire array to bind to different antibodies (primary antibody), followed by one antibody (secondary antibody) selected among the panel of 150 anti-GAL3 antibodies tested. At the end of each cycle, the array was regenerated by 10 mM Glycine (pH 2.0) to remove bound antigen and secondary antibody from the array. The data analysis was done using the Epitope software by CarterraBio.

T1 sequence (P17931 whole entry): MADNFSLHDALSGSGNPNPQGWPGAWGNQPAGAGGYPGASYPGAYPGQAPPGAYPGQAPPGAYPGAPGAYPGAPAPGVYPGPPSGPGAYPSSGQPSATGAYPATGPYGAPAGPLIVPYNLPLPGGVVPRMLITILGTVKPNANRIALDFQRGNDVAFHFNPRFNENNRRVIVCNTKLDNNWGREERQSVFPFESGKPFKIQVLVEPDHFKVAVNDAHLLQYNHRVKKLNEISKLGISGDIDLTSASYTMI

Molecule | epitope bin (mutual competitive binding for Gal3) | binding to hGAL3 when immobilized on HC200M chip
B1 | CRD | –
B2 | – | not bind
B3 | – | not bind
B4 | – | not bind
B5 | – | not bind
B6 | – | not bind
B7 | 21 | –

system: Human Gal3 peptides; assay: Gal3 peptide binding ELISA (Example 8); settings: antibody 5 μg/mL
Description: Gal3 peptide binding activity of additional exemplary anti-Gal3 antibodies was assessed with the same peptides as described in FIG. 18 (SEQ ID NOs: 3-26). Human Gal3 peptides (LifeTein, custom order) and human Gal3 proteins (R&D Systems, 8259-GA; TrueBinding, QCB200349) were diluted in PBS (Corning, 21-030-CM) to concentrations of at least 100 μg/mL (peptides) or 1 μg/mL (proteins), and added to the wells of several 96-well ELISA plates (Thermo Fisher, 44-2404-21). After incubating the plates at 4° C. overnight, the plates were washed three times with PBST (PBS with 0.05% Tween 20 [VWR, 0777]). The plates were then blocked for an hour with 2% BSA (EMD Millipore, 126609) in PBST at room temperature with gentle rocking. Thereafter, the 2% BSA in PBST was discarded and Gal3-binding antibodies (reformatted hIgG4 [S228P]) were diluted in 2% BSA in PBST to concentrations of 5 μg/mL and added to the wells. The plates were incubated for an hour at room temperature with gentle rocking and then washed three times with PBST. Afterwards, Peroxidase AffiniPure F(ab′)2 Fragment Goat Anti-Human IgG (H+L) polyclonal antibody (Jackson ImmunoResearch, 109-036-003), was diluted in 2% BSA in PBST (1:4000) and added to the wells. The plates were incubated for 1 hour at room temperature with gentle rocking and then washed three times with PBST. TMB substrate (Thermo Scientific, 34029) was then added to each well. The reaction was stopped with 1M HCl (JT Baker, 5620-02) and read using a plate reader (Molecular Devices) at absorbance of 450 nm.

Molecule | binding to any of the tested Gal3 peptides
B1 | not found to bind
B2 | not found to bind
B3 | not found to bind
B4 | not found to bind
B5 | not found to bind
B6 | not found to bind
B7 | not found to bind

Reference: patent US20220411514A1, “ANTI-GAL3 ANTIBODIES AND METHODS OF USE FOR INSULIN RESISTANCE” (TrueBinding, Inc., priority 2021, published 2022)
